According to patent US7858322B2, “Method of determining inhibition of binding to TRPM7 protein” (NoNo, Inc., priority 2003, dated 2010):
No end group written: not given here. *: point of attachment. Biotin = O=C1N[C@H]2[C@H](CS[C@H]2CCCCC(=O)*)N1

Key:
Experiment in all cases: G assays, titrations or binding assays of peptides
RIM2 d1 = biological target: T1, RIM2 d1 (Homo sapiens, UniProt Q9UQ26); conditions: peptide demonstrated to bind RIM2 d1 in G assays
T1 construct: made in house; host or cells: E. coli (DH5α, BL21 or JM109)
T1 sequence (Q9UQ26 632-757): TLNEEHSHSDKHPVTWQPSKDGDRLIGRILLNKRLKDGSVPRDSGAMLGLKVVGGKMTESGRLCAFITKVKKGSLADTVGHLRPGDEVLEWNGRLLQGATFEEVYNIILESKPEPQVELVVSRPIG
Procedure: (§1) In one aspect, the invention provides an assay in which a GST/PDZ fusion protein is immobilized on a surface (G assay). […] In a preferred embodiment, the assay is carried out as follows:
(§2) (1) A PDZ-domain polypeptide is bound to a surface, e.g. a protein binding surface. In a preferred embodiment, a GST/PDZ fusion protein containing one or more PDZ domains is bound to a polystyrene 96-well plate. […] In one embodiment, the GST/PDZ fusion protein is bound via an anti-GST antibody that is coated onto the 96-well plate. Adequate binding to the plate can be achieved when: • a. 100 μl per well of 5 μg/ml goat anti-GST polyclonal antibody (Pierce) in PBS is added to a polystyrene 96-well plate (e.g., Nunc Polysorp) at 4° C. for 12 hours. • b. The plate is blocked by addition of 200 μl per well of PBS/BSA for 2 hours at 4° C. • c. The plate is washed 3 times with PBS. • d. 50 μl per well of 5 μg/ml GST/PDZ fusion protein) or, as a negative control, GST polypeptide alone (i.e. not a fusion protein) in PBS/BSA is added to the plate for 2 hours at 4° C. • e. the plate is again washed 3 times with PBS.
(§3) (2) Biotinylated PL peptides are allowed to react with the surface by addition of 50 μl per well of 20 μM solution of the biotinylated peptide in PBS/BSA for 10 minutes at 4° C., followed by an additional 20 minute incubation at 25° C. The plate is washed 3 times with ice cold PBS.
(§4) (3) The binding of the biotinylated peptide to the GST/PDZ fusion protein surface can be detected using a variety of methods and detectors known to one of skill in the art. In one embodiment, 100 μl per well of 0.5 μg/ml streptavidin-horseradish peroxidase (HRP) conjugate dissolved in BSA/PBS is added and allowed to react for 20 minutes at 4° C. The plate is then washed 5 times with 50 mM Tris pH 8.0 containing 0.2% Tween 20, and developed by addition of 100 μl per well of HRP-substrate solution (TMB, Dako) for 20 minutes at room temperature (RT). The reaction of the HRP and its substrate is terminated by addition of 100 μl per well of 1 M sulfuric acid, and the optical density (O.D.) of each well of the plate is read at 450 um.
(§5) (4) Specific binding of a PL peptide and a PDZ domain polypeptide is determined by comparing the signal from the well(s) in which the PL peptide and PDZ domain polypeptide are combined, with the background signal(s). […] Typically a specific or selective reaction will be at least twice background signal, more typically more than 5 times background, and most typically 10 or more times the background signal. […] Correspondingly, a statistical test (e.g. a T-test) comparing repeated measurements of the signal with repeated measurements of the background will result in a p-value <0.05, more typically a p-value <0.01, and most typically a p-value <0.001 or less. As noted, in an embodiment of the G assay, the signal from binding of a given PL peptide to immobilized (surface bound) GST polypeptide alone is one suitable negative control (sometimes referred to as B1). Because all measurement are done in multiples (i.e. at least duplicate) the arithmetic mean (or, equivalently, average.) of several measurements is used in determining the binding, and the standard error of the mean is used in determining the probable error in the measurement of the binding. The standard error of the mean of N measurements equals the square root of the following: the sum of the squares of the difference between each measurement and the mean, divided by the product of (N) and (N−1). Thus, in one embodiment, specific binding of the PDZ protein to the platebound peptide is determined by comparing the mean signal (“mean S”) and standard error of the signal (“SE”) for a particular PL-PDZ combination with the mean B1.

ZO-1 d2 = biological target: T2, ZO-1 d2 (Homo sapiens, UniProt Q07157, DEL264-264); conditions: peptide demonstrated to bind ZO-1 d2 in G assays
T2 construct: made in house; host or cells: E. coli (DH5α, BL21 or JM109)
T2 sequence (Q07157 with tags, fused parts or gaps DEL264-264): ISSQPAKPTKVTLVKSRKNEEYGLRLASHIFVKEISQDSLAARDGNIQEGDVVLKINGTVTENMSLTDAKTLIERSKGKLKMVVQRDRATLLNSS
Procedure: as §1, §2, §3, §4, §5

INADL d3 = biological target: T3, INADL d3 (Homo sapiens, UniProt Q8NI35); conditions: peptide demonstrated to bind INADL d3 in G assays
T3 construct: made in house; host or cells: E. coli (DH5α, BL21 or JM109)
T3 sequence (Q8NI35 with tags, fused parts or gaps): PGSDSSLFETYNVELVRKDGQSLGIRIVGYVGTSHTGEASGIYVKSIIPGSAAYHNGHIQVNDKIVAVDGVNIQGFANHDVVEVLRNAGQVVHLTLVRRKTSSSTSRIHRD
Procedure: as §1, §2, §3, §4, §5

PAR3 d3 = biological target: T4, PAR3 d3 (Homo sapiens, UniProt Q8TEW0, R682S); conditions: peptide demonstrated to bind PAR3 d3 in G assays
T4 construct: made in house; host or cells: E. coli (DH5α, BL21 or JM109)
T4 sequence (Q8TEW0 with tags, fused parts or gaps R682S): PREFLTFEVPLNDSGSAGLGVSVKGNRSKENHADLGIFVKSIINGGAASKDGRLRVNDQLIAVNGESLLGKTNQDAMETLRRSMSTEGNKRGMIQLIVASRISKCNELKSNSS
Procedure: as §1, §2, §3, §4, §5

Sequence | POZ domain bound (RIM2 d1) | POZ domain bound (ZO-1 d2) | POZ domain bound (INADL d3) | POZ domain bound (PAR3 d3)
YGRKKRRQRRRGMTSSSSVV (Biotin-YGRKKRRQRRRGMTSSSSVV) | RIM2 D1 |  |  | 
YGRKKRRQRRRARGDRLEIV (Biotin-YGRKKRRQRRRARGDRLEIV) | RIM2 D1 |  |  | 
YGRKKRRQRRRQDEEEGIWA (Biotin-YGRKKRRQRRRQDEEEGIWA) | RIM2 D1 | ZO-1 D2 |  | 
YGRKKRRQRRRAVAAASANL (Biotin-YGRKKRRQRRRAVAAASANL) | RIM2 D1 | ZO-1 D2 |  | 
YVYSRVKNLNSSEGVPDLLV |  | ZO-1 D2 |  | 
TEGNESSEATSPVNAIYSLA (Biotin-TEGNESSEATSPVNAIYSLA) |  | ZO-1 D2 |  | 
VPSDNIDSQGRNASTNDSLL (Biotin-VPSDNIDSQGRNASTNDSLL) |  |  | INADL D3 | 
YGRKKRRQRRRARGDRKKIV (Biotin-YGRKKRRQRRRARGDRKKIV) | RIM2 D1 |  |  | 
ENLELPVNPSSWSERISSV |  |  | INADL D3 | 
LNSCSNRRVYKKMPSIESDV (Biotin-LNSCSNRRVYKKMPSIESDV) |  | ZO-1 D2 | INADL D3 | 
PSSRASSRASSRPRPDDLEI (Biotin-PSSRASSRASSRPRPDDLEI) |  | ZO-1 D2 |  | 
YGRKKRRQRRRARGDRKRWA (Biotin-YGRKKRRQRRRARGDRKRWA) | RIM2 D1 | ZO-1 D2 |  | 
KYSAPRRPTATGDYDKKNYV (Biotin-KYSAPRRPTATGDYDKKNYV) |  |  |  | PAR3 D3
KTMPAAMYRLLTAQEQPVYI (Biotin-KTMPAAMYRLLTAQEQPVYI) |  |  |  | PAR3 D3
LQFHRGSRAQSFLQTETSVI (Biotin-LQFHRGSRAQSFLQTETSVI) |  |  | INADL D3 | PAR3 D3
YGRKKRRQRRRQDEEETIWA (Biotin-YGRKKRRQRRRQDEEETIWA) | RIM2 D1 |  |  | 
LASKSAEEGKQIPDSLSTDL (Biotin-LASKSAEEGKQIPDSLSTDL) |  |  | INADL D3 | PAR3 D3
YGRKKRRQRRRARSDRGIWA (Biotin-YGRKKRRQRRRARSDRGIWA) | RIM2 D1 | ZO-1 D2 |  | 
RRRRRRRGTNPAVAATSANL (Biotin-RRRRRRRGTNPAVAATSANL) |  | ZO-1 D2 |  | 
YGRKKRRQRRRSEGVPDLLV |  | ZO-1 D2 |  | PAR3 D3

Sequence | POZ domain bound (RIM2 d1) | POZ domain bound (ZO-1 d2) | POZ domain bound (INADL d3) | POZ domain bound (PAR3 d3)
LERTSSVSPSTAEPELSIVF (Biotin-LERTSSVSPSTAEPELSIVF) |  |  |  | PAR3 D3
KTMPAAMFRLLTGQETPLYI (Biotin-KTMPAAMFRLLTGQETPLYI) |  |  |  | PAR3 D3
PGQPPKVKSEFNSYSLTGYV (Biotin-PGQPPKVKSEFNSYSLTGYV) |  |  | INADL D3 | PAR3 D3
HAMNAAPRAMENAPALRTSH (Biotin-HAMNAAPRAMENAPALRTSH) |  |  | INADL D3 | 
KTMPAATYRLLTGQEQPVYL (Biotin-KTMPAATYRLLTGQEQPVYL) |  |  |  | PAR3 D3
QGDPALQDAGDSSRKEYFI (Biotin-QGDPALQDAGDSSRKEYFI) |  |  |  | PAR3 D3
YGRKKRRQRRRAVAATYSNL (Biotin-YGRKKRRQRRRAVAATYSNL) | RIM2 D1 | ZO-1 D2 |  | 
YGRKKRRQRRRARGDRKRWL (Biotin-YGRKKRRQRRRARGDRKRWL) | RIM2 D1 | ZO-1 D2 |  | 
YGRKKRRQRRRARSDRKRIV (Biotin-YGRKKRRQRRRARSDRKRIV) | RIM2 D1 |  |  | 
YGRKKRRQRRRQDERVETRV (Biotin-YGRKKRRQRRRQDERVETRV) | RIM2 D1 |  |  | 
NYKLNTDHAGSNDNIALLVQ | RIM2 D1 | ZO-1 D2 |  | 
YGRKKRRQRRREYLGLDVPV | RIM2 D1 | ZO-1 D2 | INADL D3 | PAR3 D3
RRRRRRRGNTTDKELEVLSL (Biotin-RRRRRRRGNTTDKELEVLSL) |  | ZO-1 D2 |  | 
YGRKKRRQRRRGASADSTQA | RIM2 D1 | ZO-1 D2 |  | PAR3 D3
YGRKKRRQRRRAVAATSANL | RIM2 D1 | ZO-1 D2 | INADL D3 | PAR3 D3
SSPDSSYQGKGFVMSRAMYV (Biotin-SSPDSSYQGKGFVMSRAMYV) |  |  |  | PAR3 D3
YGRKKRRQRRRARGDRRRIV (Biotin-YGRKKRRQRRRARGDRRRIV) | RIM2 D1 |  |  | 
YGRKKRRQRRRARSDRKRIA (Biotin-YGRKKRRQRRRARSDRKRIA) | RIM2 D1 |  |  | 
SLIGPVQKEYQRELGKLSSP (Biotin-SLIGPVQKEYQRELGKLSSP) |  |  | INADL D3 | 
KHSRKSSSYSSSSTTVKTSY (Biotin-KHSRKSSSYSSSSTTVKTSY) | RIM2 D1 | ZO-1 D2 | INADL D3 | PAR3 D3

Sequence | POZ domain bound (RIM2 d1) | POZ domain bound (ZO-1 d2) | POZ domain bound (INADL d3) | POZ domain bound (PAR3 d3)
SSSRRDSSWSETSEASYSGL (Biotin-SSSRRDSSWSETSEASYSGL) | RIM2 D1 | ZO-1 D2 |  | 
YGRKKRRQRRRSVTSTSINL (Biotin-YGRKKRRQRRRSVTSTSINL) | RIM2 D1 |  |  | 
TTNNNPNSAVNIKKIFTDV (Biotin-TTNNNPNSAVNIKKIFTDV) |  | ZO-1 D2 | INADL D3 | 
YGRKKRRQRRRLQRRRETQV (Biotin-YGRKKRRQRRRLQRRRETQV) | RIM2 D1 |  |  | 
YGRKKRRQRRRDKELEVLSL |  | ZO-1 D2 |  | 
STDNLVRPFMDTLASHQLYI (Biotin-STDNLVRPFMDTLASHQLYI) |  |  | INADL D3 | PAR3 D3
YGRKKRRQRRRAVAATGIWA (Biotin-YGRKKRRQRRRAVAATGIWA) | RIM2 D1 |  |  | 
YSATYSELEDPGEMSPPIDL (Biotin-YSATYSELEDPGEMSPPIDL) |  |  | INADL D3 | 
YGRKKRRQRRRARGDRKRIV | RIM2 D1 | ZO-1 D2 |  | 
YGRKKRRQRRRARGDVRLML (Biotin-YGRKKRRQRRRARGDVRLML) | RIM2 D1 |  |  | 
FHSKTAGANTTDKELEVLSL (Biotin-FHSKTAGANTTDKELEVLSL) | RIM2 D1 | ZO-1 D2 | INADL D3 | PAR3 D3
VDPNSPAAKKKYVSYNNLVI (Biotin-VDPNSPAAKKKYVSYNNLVI) | RIM2 D1 | ZO-1 D2 | INADL D3 | PAR3 D3
YGRKKRRQRRRQDEEEGIWS (Biotin-YGRKKRRQRRRQDEEEGIWS) | RIM2 D1 |  |  | 
DGGARTEDEVQSYPSKHDYV (Biotin-DGGARTEDEVQSYPSKHDYV) |  |  |  | PAR3 D3
ELLQFCRTPNPALKNGQYWV (Biotin-ELLQFCRTPNPALKNGQYWV) |  | ZO-1 D2 | INADL D3 | PAR3 D3
YGRKKRRQRRRSRTVREIWA (Biotin-YGRKKRRQRRRSRTVREIWA) | RIM2 D1 |  |  | 
RSGATIPLVGQDIIDLQTEV (Biotin-RSGATIPLVGQDIIDLQTEV) |  |  | INADL D3 | 
KAGYRAPRSYPKSNSSKEYV (Biotin-KAGYRAPRSYPKSNSSKEYV) |  |  |  | PAR3 D3
